# Measurements reported in patent US20250352667A1.
# Key:
# [1] = biological target: KEAP1 (wild-type full-length), His-tagged (human) (UniProt Q14145); assay: AlphaScreen; 4.8 nM FLAG-NRF2, 150 nM His-KEAP1; Rep 1
# [2] = biological target: KEAP1 (wild-type full-length), His-tagged (human) (UniProt Q14145); assay: AlphaScreen; 9.6 nM FLAG-NRF2, 150 nM His-KEAP1; Rep 2
# [3] = biological target: KEAP1 (wild-type full-length), His-tagged (human) (UniProt Q14145); assay: AlphaScreen; 9.6 nM FLAG-NRF2, 150 nM His-KEAP1; signal against NRF2 only
# [4] = biological target: KEAP1 (wild-type full-length), His-tagged (human) (UniProt Q14145); assay: AlphaScreen; 4.8 nM FLAG-NRF2, 150 nM His-KEAP1; signal against NRF2 only
# [5] = biological target: KEAP1 (wild-type full-length), His-tagged (human) (UniProt Q14145); assay: AlphaScreen; 76.8 nM FLAG-NRF2, 150 nM His-KEAP1; Rep 1
# [6] = biological target: KEAP1 (wild-type full-length), His-tagged (human) (UniProt Q14145); assay: AlphaScreen; 19.2 nM FLAG-NRF2, 150 nM His-KEAP1; Rep 2
# [7] = biological target: KEAP1 (wild-type full-length), His-tagged (human) (UniProt Q14145); assay: AlphaScreen; 38.4 nM FLAG-NRF2, 150 nM His-KEAP1; signal against NRF2 only
# [8] = biological target: KEAP1 (wild-type full-length), His-tagged (human) (UniProt Q14145); assay: AlphaScreen; 38.4 nM FLAG-NRF2, 150 nM His-KEAP1; Rep 2
# [9] = biological target: KEAP1 (wild-type full-length), His-tagged (human) (UniProt Q14145); assay: AlphaScreen; 1228.8 nM FLAG-NRF2, 150 nM His-KEAP1; Rep 1
# [10] = biological target: KEAP1 (wild-type full-length), His-tagged (human) (UniProt Q14145); assay: AlphaScreen; 153.6 nM FLAG-NRF2, 150 nM His-KEAP1; Rep 1
# [11] = biological target: KEAP1 (wild-type full-length), His-tagged (human) (UniProt Q14145); assay: AlphaScreen; 614.4 nM FLAG-NRF2, 150 nM His-KEAP1; Rep 2
# [12] = biological target: KEAP1 (wild-type full-length), His-tagged (human) (UniProt Q14145); assay: AlphaScreen; 19.2 nM FLAG-NRF2, 150 nM His-KEAP1; Rep 1
# [13] = biological target: KEAP1 (wild-type full-length), His-tagged (human) (UniProt Q14145); assay: AlphaScreen; 1228.8 nM FLAG-NRF2, 150 nM His-KEAP1; signal against NRF2 only
# [14] = biological target: KEAP1 (wild-type full-length), His-tagged (human) (UniProt Q14145); assay: AlphaScreen; 76.8 nM FLAG-NRF2, 150 nM His-KEAP1; signal against NRF2 only
# [15] = biological target: KEAP1 (wild-type full-length), His-tagged (human) (UniProt Q14145); assay: AlphaScreen; 9.6 nM FLAG-NRF2, 150 nM His-KEAP1; Rep 1
# [16] = biological target: KEAP1 (wild-type full-length), His-tagged (human) (UniProt Q14145); assay: AlphaScreen; 614.4 nM FLAG-NRF2, 150 nM His-KEAP1; Rep 1
# [17] = biological target: KEAP1 (wild-type full-length), His-tagged (human) (UniProt Q14145); assay: AlphaScreen; 2.4 nM FLAG-NRF2, 150 nM His-KEAP1; Rep 2
# [18] = biological target: KEAP1 (wild-type full-length), His-tagged (human) (UniProt Q14145); assay: AlphaScreen; 2.4 nM FLAG-NRF2, 150 nM His-KEAP1; Rep 1
# [19] = biological target: KEAP1 (wild-type full-length), His-tagged (human) (UniProt Q14145); assay: AlphaScreen; 1228.8 nM FLAG-NRF2, 150 nM His-KEAP1; Rep 2
# [20] = biological target: KEAP1 (wild-type full-length), His-tagged (human) (UniProt Q14145); assay: AlphaScreen; 38.4 nM FLAG-NRF2, 150 nM His-KEAP1; Rep 1
# [21] = biological target: KEAP1 (wild-type full-length), His-tagged (human) (UniProt Q14145); assay: AlphaScreen; 614.4 nM FLAG-NRF2, 150 nM His-KEAP1; signal against NRF2 only
# [22] = biological target: KEAP1 (wild-type full-length), His-tagged (human) (UniProt Q14145); assay: AlphaScreen; 4.8 nM FLAG-NRF2, 150 nM His-KEAP1; Rep 2
# [23] = biological target: KEAP1 (wild-type full-length), His-tagged (human) (UniProt Q14145); assay: AlphaScreen; 153.6 nM FLAG-NRF2, 150 nM His-KEAP1; Rep 2
# [24] = biological target: KEAP1 (wild-type full-length), His-tagged (human) (UniProt Q14145); assay: AlphaScreen; 307.2 nM FLAG-NRF2, 150 nM His-KEAP1; signal against NRF2 only
# [25] = biological target: KEAP1 (wild-type full-length), His-tagged (human) (UniProt Q14145); assay: AlphaScreen; 307.2 nM FLAG-NRF2, 150 nM His-KEAP1; Rep 2
# [26] = biological target: KEAP1 (wild-type full-length), His-tagged (human) (UniProt Q14145); assay: AlphaScreen; 2.4 nM FLAG-NRF2, 150 nM His-KEAP1; signal against NRF2 only
# [27] = biological target: KEAP1 (wild-type full-length), His-tagged (human) (UniProt Q14145); assay: AlphaScreen; 153.6 nM FLAG-NRF2, 150 nM His-KEAP1; signal against NRF2 only
# [28] = biological target: KEAP1 (wild-type full-length), His-tagged (human) (UniProt Q14145); assay: AlphaScreen; 76.8 nM FLAG-NRF2, 150 nM His-KEAP1; Rep 2
# [29] = biological target: KEAP1 (wild-type full-length), His-tagged (human) (UniProt Q14145); assay: AlphaScreen; 19.2 nM FLAG-NRF2, 150 nM His-KEAP1; signal against NRF2 only
# Sequence of KEAP1 (wild-type full-length), His-tagged (human) (Q14145 2-624 limits assumed, form in doubt): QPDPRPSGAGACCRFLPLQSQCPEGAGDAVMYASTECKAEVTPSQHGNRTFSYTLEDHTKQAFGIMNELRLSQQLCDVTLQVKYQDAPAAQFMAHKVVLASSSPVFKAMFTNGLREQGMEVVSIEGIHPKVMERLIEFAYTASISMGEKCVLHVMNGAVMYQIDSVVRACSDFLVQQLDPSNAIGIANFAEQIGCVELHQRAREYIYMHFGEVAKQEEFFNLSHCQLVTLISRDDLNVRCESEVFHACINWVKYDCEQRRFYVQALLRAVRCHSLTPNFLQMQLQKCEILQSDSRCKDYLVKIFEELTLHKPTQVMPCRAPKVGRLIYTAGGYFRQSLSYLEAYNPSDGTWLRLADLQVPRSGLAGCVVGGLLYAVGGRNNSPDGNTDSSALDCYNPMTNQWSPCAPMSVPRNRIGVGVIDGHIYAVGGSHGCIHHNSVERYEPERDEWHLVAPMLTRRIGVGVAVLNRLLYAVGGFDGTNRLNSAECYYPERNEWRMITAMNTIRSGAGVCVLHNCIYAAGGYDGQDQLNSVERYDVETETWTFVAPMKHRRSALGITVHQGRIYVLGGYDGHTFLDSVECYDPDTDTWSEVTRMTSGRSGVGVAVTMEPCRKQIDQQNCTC
A-counts [1] [A-counts],A-counts [2] [A-counts],S/N [3],S/N [4],A-counts [5] [A-counts],A-counts [6] [A-counts],S/N [7],A-counts [8] [A-counts],A-counts [9] [A-counts],A-counts [10] [A-counts],A-counts [11] [A-counts],A-counts [12] [A-counts],S/N [13],S/N [14],A-counts [15] [A-counts],A-counts [16] [A-counts],A-counts [17] [A-counts],A-counts [18] [A-counts],A-counts [19] [A-counts],A-counts [20] [A-counts],Substance,further results
1390,1520,1.8,1.8,2140,1950,1.8,1960,1250,1820,1400,1700,1,1.7,1670,1570,1120,1080,1210,2120,"NRF2 isoform 2 (E63G/E66G full-length), FLAG-tagged",S/N [21]: 1.1; A-counts [22]: 1480 A-counts; A-counts [23]: 1840 A-counts; S/N [24]: 1.1; A-counts [25]: 1650 A-counts; S/N [26]: 1.7; S/N [27]: 1.5; A-counts [28]: 1900 A-counts; S/N [29]: 1.8
1740,2590,3.7,2.7,3730,3260,3.4,3460,1480,3200,2290,3480,1.3,3.4,2310,2430,1010,1130,1470,3470,"NRF2 isoform 2 (wild-type full-length), FLAG-tagged",S/N [21]: 2.1; A-counts [22]: 1670 A-counts; A-counts [23]: 3500 A-counts; S/N [24]: 2.2; A-counts [25]: 2860 A-counts; S/N [26]: 2; S/N [27]: 2.8; A-counts [28]: 3910 A-counts; S/N [29]: 4.2
